Data set [1] concerns the target T1, SsoSSB (single-stranded DNA-binding protein) (Sulfolobus solfataricus, UniProt Q97W73 1-148).
T1 sequence: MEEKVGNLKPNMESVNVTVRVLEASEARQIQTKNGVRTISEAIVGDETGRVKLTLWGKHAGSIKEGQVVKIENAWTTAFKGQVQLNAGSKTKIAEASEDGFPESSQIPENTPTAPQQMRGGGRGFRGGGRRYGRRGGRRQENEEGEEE
Kind of data set: ITC; apparent Kd, 50 C; text says 21U, Fig. 1 legend says poly-rA; ITC: 20 mM MES pH 6.5, 100 mM K-glutamate, 1 mM MgCl2, 50 C; PIFE: 50 mM Tris-HCl pH 8.0, 10 mM KCl; smFRET: same buffer plus Trolox and oxygen scavenger, room. Particulars: protein: recombinant.

In data set [2] the target is T1, SsoSSB (single-stranded DNA-binding …). Kind of data set: ITC; apparent Kd, 50 C; text says 21T, Fig. 1 legend says poly-A DNA; ITC: 20 mM MES pH 6.5, 100 mM K-glutamate, 1 mM MgCl2, 50 C; PIFE: 50 mM Tris-HCl pH 8.0, 10 mM KCl; smFRET: same buffer plus Trolox and oxygen scavenger, room. Particulars: protein: recombinant.
For data set [3] the target is unchanged. The experiment in a line: fluorescence (PIFE); ~0.7 nM RNA; Hill 1.7 +/- 0.2; ITC: 20 mM MES pH 6.5, 100 mM K-glutamate, 1 mM MgCl2, 50 C; PIFE: 50 mM Tris-HCl pH 8.0, 10 mM KCl; smFRET: same buffer plus Trolox and oxygen scavenger, room. Particulars: protein: recombinant, label: 5' biotin, 3' Cy3.
For data set [4] the target is unchanged. The experiment in a line: fluorescence (PIFE); 10 nM RNA, 10 mM KCl; Hill 1.8 +/- 0.3; ITC: 20 mM MES pH 6.5, 100 mM K-glutamate, 1 mM MgCl2, 50 C; PIFE: 50 mM Tris-HCl pH 8.0, 10 mM KCl; smFRET: same buffer plus Trolox and oxygen scavenger, room. Particulars: protein: recombinant, label: 5' biotin, 3' Cy3.
Data set [5] addresses T2, SsoSSB A114C-Alexa Fluor 647 (Sulfolobus solfataricus, UniProt Q97W73 1-148, A114C).
T2 sequence: T1 sequence with A114C
The experiment in a line: single-molecule FRET; 1-2 nM protein; dissociation 6 +/- 1 s-1, association 0.12 +/- 0.08 s-1; ITC: 20 mM MES pH 6.5, 100 mM K-glutamate, 1 mM MgCl2, 50 C; PIFE: 50 mM Tris-HCl pH 8.0, 10 mM KCl; smFRET: same buffer plus Trolox and oxygen scavenger, room. Particulars: protein: recombinant; tags: Alexa Fluor 647 label; label: 5' biotin, 3' Cy3; single-stranded.

For data set [6], the target named is T3, SsoSSB OB domain (15N) (Sulfolobus solfataricus, UniProt Q97W73 1-114).
T3 sequence: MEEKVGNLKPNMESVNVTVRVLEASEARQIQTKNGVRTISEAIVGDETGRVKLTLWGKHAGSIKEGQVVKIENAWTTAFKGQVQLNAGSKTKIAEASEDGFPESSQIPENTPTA
The experiment in a line: NMR HSQC; 1:1, 298 K; 2MNA is an earlier structure; ITC: 20 mM MES pH 6.5, 100 mM K-glutamate, 1 mM MgCl2, 50 C; PIFE: 50 mM Tris-HCl pH 8.0, 10 mM KCl; smFRET: same buffer plus Trolox and oxygen scavenger, room. Particulars: protein: recombinant; single-stranded.

The target of data set [7] is T2, SsoSSB A114C-Alexa Fluor 647. The experiment in a line: single-molecule FRET; 1-2 nM protein; dissociation 3.8 +/- 0.8 s-1, association 0.06 +/- 0.01 s-1; ITC: 20 mM MES pH 6.5, 100 mM K-glutamate, 1 mM MgCl2, 50 C; PIFE: 50 mM Tris-HCl pH 8.0, 10 mM KCl; smFRET: same buffer plus Trolox and oxygen scavenger, room. Particulars: protein: recombinant; tags: Alexa Fluor 647 label; chain copies: 2; label: 5' biotin, 3' Cy3; single-stranded.

Data set [8] deals with T1, SsoSSB (single-stranded DNA-binding …). Kind of data set: fluorescence (PIFE); 10 nM DNA, 10 mM KCl; Hill 1.6 +/- 0.5; ITC: 20 mM MES pH 6.5, 100 mM K-glutamate, 1 mM MgCl2, 50 C; PIFE: 50 mM Tris-HCl pH 8.0, 10 mM KCl; smFRET: same buffer plus Trolox and oxygen scavenger, room. Particulars: protein: recombinant, label: 5' biotin, 3' Cy3.
In data set [9] the target is T3, SsoSSB OB domain (15N). Kind of data set: NMR HSQC; 1:1, 298 K; the RNA complex is only a HADDOCK model; ITC: 20 mM MES pH 6.5, 100 mM K-glutamate, 1 mM MgCl2, 50 C; PIFE: 50 mM Tris-HCl pH 8.0, 10 mM KCl; smFRET: same buffer plus Trolox and oxygen scavenger, room. Particulars: protein: recombinant; single-stranded.
The target in data set [10] is T1, SsoSSB (single-stranded DNA-binding …). The experiment in a line: FRET hairpin melting; hairpin disrupted at 20 nM SsoSSB; ITC: 20 mM MES pH 6.5, 100 mM K-glutamate, 1 mM MgCl2, 50 C; PIFE: 50 mM Tris-HCl pH 8.0, 10 mM KCl; smFRET: same buffer plus Trolox and oxygen scavenger, room. Particulars: protein: recombinant; label: 5' Cy5, 3' Cy3; hairpin with single-nucleotide bulge.

Substitutions are numbered along the chain they refer to. Names and notes keep the numbering of the source.

As to UUUUUUUUUUUUUUUUUUUUU (ssRNA) [R21U (21U RNA)], the Kd in data set [1] stood at 93 ± 0.4 nM. Take TTTTTTTTTTTTTTTTTTTTT (ssDNA) [21T DNA]: the Kd in data set [2] was found to be 95 ± 0.6 nM.

Regarding CCCCCCCCCCCC (ssRNA) [C12ssRNA], the figures for the Kd in [3] and in data set [4] were 6 ± 1 nM and 4.2 ± 0.6 nM, respectively. Also, the binding result in data set [5] is reported as “binds”. Turning to TTTTTT (ssDNA) [6T ssDNA], in [6], the binding result is “binds”. With CCCCCCCCCCCC (ssDNA) [C12ssDNA], in data set [7], the binding result is recorded as “binds”. The Kd in [8] worked out at 8.2 ± 0.9 nM. For UUUUUU (ssRNA) [6U RNA], the binding result in data set [9] is “binds”.

Take UGAUAAUCUCUUAUAGAAUUGAAAGU (structured_RNA) [RNA Hairpin]: in [10], the binding result is “binds”.

(Values after PMC5346138, “High-affinity RNA binding by a hyperthermophilic single-stranded DNA-binding protein”.)
